Measured values reported in the supplement of paper PMC9112550, “Optimization of the antimicrobial peptide Bac7 by deep mutational scanning” (BMC Biology, 2022).

These sequences were tested on Escherichia coli TOP10 (assay: shrunken log2 fold change of peptide-encoding DNA abundance (4.5 h post-induction vs induction); higher = less antimicrobial activity (less host growth inhibition)). Details: time post-induction: 4.5 h; library: site-saturation at positions 5, 18, 19, 20.
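Also: peptides expressed intracellularly from a pBAD plasmid library in pooled LB shake-flask culture, induced with 0.3% L-arabinose, DNA abundance read by NGS, three biological replicates, DESeq2 with apeglm shrinkage.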

| Sequence | shrunken log2 fold change |
| --- | --- |
| RRIRWRPPRLPRPRPRPAHFPRP | 0.141 |
| RRIRVRPPRLPRPRPRPTHSPRP | 0.156 |
| RRIRDRPPRLPRPRPRPLYRPRP | -0.163 |
| RRIRQRPPRLPRPRPRPDNQPRP | -0.037 |
| RRIRQRPPRLPRPRPRPNPCPRP | -0.349 |
| RRIRIRPPRLPRPRPRPAYIPRP | 0.011 |
| RRIRRRPPRLPRPRPRPFQLPRP | 0.0918 |
| RRIRTRPPRLPRPRPRPTGVPRP | 0.077 |
| RRIRLRPPRLPRPRPRPVYSPRP | -0.881 |
| RRIRWRPPRLPRPRPRPKVPPRP | -0.0143 |
| RRIRFRPPRLPRPRPRPWDIPRP | -0.0124 |
| RRIRMRPPRLPRPRPRPKDQPRP | 2.28 |
| RRIRSRPPRLPRPRPRPMRDPRP | 0.0126 |
| RRIRHRPPRLPRPRPRPSREPRP | 0.0138 |
| RRIRMRPPRLPRPRPRPKWAPRP | 0.0251 |
| RRIRKRPPRLPRPRPRPMFNPRP | -0.0523 |
| RRIRRRPPRLPRPRPRPCNNPRP | -0.368 |
| RRIRPRPPRLPRPRPRPTSSPRP | 0.0475 |
| RRIRGRPPRLPRPRPRPDHGPRP | -0.0602 |
| RRIRARPPRLPRPRPRPAKVPRP | 0.167 |
| RRIRDRPPRLPRPRPRPQASPRP | -0.0448 |
| RRIRARPPRLPRPRPRPGWMPRP | -0.168 |
| RRIRERPPRLPRPRPRPVPEPRP | -0.0948 |
| RRIRQRPPRLPRPRPRPIWQPRP | -0.049 |
| RRIRVRPPRLPRPRPRPVTQPRP | 0.12 |

| Sequence | shrunken log2 fold change |
| --- | --- |
| RRIRRRPPRLPRPRPRPDNRPRP | 0.0484 |
| RRIRTRPPRLPRPRPRPWWAPRP | -0.134 |
| RRIRNRPPRLPRPRPRPGMDPRP | -0.0895 |
| RRIRQRPPRLPRPRPRPYVMPRP | -0.108 |
| RRIRRRPPRLPRPRPRPKGRPRP | 0.135 |
| RRIRFRPPRLPRPRPRPYKSPRP | -0.382 |
| RRIRQRPPRLPRPRPRPQVNPRP | -0.499 |
| RRIRVRPPRLPRPRPRPIFVPRP | -0.0998 |
| RRIRFRPPRLPRPRPRPNPAPRP | 0.0261 |
| RRIRRRPPRLPRPRPRPDCAPRP | 0.345 |
| RRIRMRPPRLPRPRPRPGLKPRP | 0.363 |
| RRIRPRPPRLPRPRPRPLVGPRP | 0.408 |
| RRIRRRPPRLPRPRPRPIGIPRP | -0.088 |
| RRIRTRPPRLPRPRPRPYSSPRP | 0.00157 |
| RRIRYRPPRLPRPRPRPTTHPRP | -0.647 |
| RRIRRRPPRLPRPRPRPMYNPRP | -0.137 |
| RRIRRRPPRLPRPRPRPCLMPRP | 0.434 |
| RRIRDRPPRLPRPRPRPLSVPRP | -0.0465 |
| RRIRKRPPRLPRPRPRPYEYPRP | 0.0169 |
| RRIRERPPRLPRPRPRPYTNPRP | -0.172 |
| RRIRGRPPRLPRPRPRPTNAPRP | 0.923 |
| RRIRDRPPRLPRPRPRPLPNPRP | -0.234 |
| RRIRTRPPRLPRPRPRPWIAPRP | -0.0119 |
| RRIRGRPPRLPRPRPRPEWVPRP | 0.875 |
| RRIRMRPPRLPRPRPRPIMNPRP | 0.284 |

| Sequence | shrunken log2 fold change |
| --- | --- |
| RRIRLRPPRLPRPRPRPFTGPRP | -0.204 |
| RRIRFRPPRLPRPRPRPTRFPRP | 0.429 |
| RRIRYRPPRLPRPRPRPVCPPRP | 0.101 |
| RRIRMRPPRLPRPRPRPVSLPRP | 0.422 |
| RRIRRRPPRLPRPRPRPTHAPRP | 1.13 |
| RRIRRRPPRLPRPRPRPAGFPRP | 0.439 |
| RRIRPRPPRLPRPRPRPNENPRP | -0.348 |
| RRIRMRPPRLPRPRPRPGCGPRP | 1.04 |
| RRIRDRPPRLPRPRPRPQTHPRP | 0.269 |
| RRIRWRPPRLPRPRPRPGSHPRP | 0.0507 |
| RRIRFRPPRLPRPRPRPDMHPRP | 0.191 |
| RRIRKRPPRLPRPRPRPVVAPRP | 0.876 |
| RRIRWRPPRLPRPRPRPVMRPRP | 0.0188 |
| RRIRARPPRLPRPRPRPMPYPRP | -0.105 |
| RRIRMRPPRLPRPRPRPICWPRP | 0.0409 |
| RRIRSRPPRLPRPRPRPQSPPRP | -0.0599 |
| RRIRKRPPRLPRPRPRPPERPRP | 2.02 |
| RRIRIRPPRLPRPRPRPHGPPRP | 0.0659 |
| RRIRVRPPRLPRPRPRPNKSPRP | -0.348 |
| RRIRRRPPRLPRPRPRPNKIPRP | 0.755 |
| RRIRERPPRLPRPRPRPKLNPRP | -0.254 |
| RRIRYRPPRLPRPRPRPTLQPRP | 0.201 |
| RRIRMRPPRLPRPRPRPSMNPRP | -0.287 |
| RRIRVRPPRLPRPRPRPDQSPRP | -0.053 |
| RRIRDRPPRLPRPRPRPAYNPRP | -0.764 |

| Sequence | shrunken log2 fold change |
| --- | --- |
| RRIRPRPPRLPRPRPRPEGDPRP | 0.39 |
| RRIRQRPPRLPRPRPRPMNHPRP | -0.337 |
| RRIRARPPRLPRPRPRPINIPRP | -0.334 |
| RRIRFRPPRLPRPRPRPGQWPRP | -0.00218 |
| RRIRGRPPRLPRPRPRPYEMPRP | 0.0132 |
| RRIRKRPPRLPRPRPRPLGIPRP | 4.29 |
| RRIRERPPRLPRPRPRPGEAPRP | 0.139 |
| RRIRDRPPRLPRPRPRPMVYPRP | 0.225 |
| RRIRNRPPRLPRPRPRPADGPRP | 0.085 |
| RRIRMRPPRLPRPRPRPGLHPRP | 0.412 |
| RRIRSRPPRLPRPRPRPVSRPRP | -0.0166 |
| RRIRKRPPRLPRPRPRPWPMPRP | 0.915 |
| RRIRGRPPRLPRPRPRPPAQPRP | 1.4 |
| RRIRSRPPRLPRPRPRPIFWPRP | 0.403 |
| RRIRRRPPRLPRPRPRPEYAPRP | 0.0407 |
| RRIRTRPPRLPRPRPRPGCRPRP | 0.235 |
| RRIRGRPPRLPRPRPRPALSPRP | 1.31 |
| RRIRRRPPRLPRPRPRPYAFPRP | 0.0067 |
| RRIRIRPPRLPRPRPRPNVEPRP | -0.325 |
| RRIRNRPPRLPRPRPRPAFGPRP | -0.189 |
| RRIRQRPPRLPRPRPRPMCNPRP | -0.389 |
| RRIRCRPPRLPRPRPRPTSNPRP | -0.1 |
| RRIRCRPPRLPRPRPRPYCSPRP | -0.502 |
| RRIRNRPPRLPRPRPRPYSAPRP | -1.37 |
| RRIRIRPPRLPRPRPRPSSHPRP | -1.02 |

| Sequence | shrunken log2 fold change |
| --- | --- |
| RRIRWRPPRLPRPRPRPNVNPRP | -0.171 |
| RRIRRRPPRLPRPRPRPLWKPRP | 0.115 |
| RRIRSRPPRLPRPRPRPNNLPRP | -1.04 |
| RRIRLRPPRLPRPRPRPLEEPRP | 0.543 |
| RRIRLRPPRLPRPRPRPHEVPRP | -0.0201 |
| RRIRTRPPRLPRPRPRPRAEPRP | 0.28 |
| RRIRMRPPRLPRPRPRPQANPRP | 0.271 |
| RRIRDRPPRLPRPRPRPPGFPRP | 0.348 |
| RRIRHRPPRLPRPRPRPTHYPRP | -0.26 |
| RRIRCRPPRLPRPRPRPIRHPRP | -0.146 |
| RRIRERPPRLPRPRPRPPMSPRP | -0.373 |
| RRIRQRPPRLPRPRPRPVNCPRP | -0.0672 |
| RRIRKRPPRLPRPRPRPIQEPRP | 0.000523 |
| RRIRNRPPRLPRPRPRPWPCPRP | -0.185 |
| RRIRFRPPRLPRPRPRPFSKPRP | 0.033 |
| RRIRNRPPRLPRPRPRPILQPRP | -0.387 |
| RRIRVRPPRLPRPRPRPWNDPRP | -0.0722 |
| RRIRTRPPRLPRPRPRPMLEPRP | 0.018 |
| RRIRGRPPRLPRPRPRPFGAPRP | 0.793 |
| RRIRSRPPRLPRPRPRPTPWPRP | 0.349 |
| RRIRHRPPRLPRPRPRPIVYPRP | -0.452 |
| RRIRYRPPRLPRPRPRPFRIPRP | -0.535 |
| RRIRSRPPRLPRPRPRPKSRPRP | -0.0201 |
| RRIRSRPPRLPRPRPRPINHPRP | -0.662 |
| RRIRQRPPRLPRPRPRPCSRPRP | 0.0758 |

| Sequence | shrunken log2 fold change |
| --- | --- |
| RRIRYRPPRLPRPRPRPIMFPRP | -1.35 |
| RRIRWRPPRLPRPRPRPLTQPRP | 0.307 |
| RRIRGRPPRLPRPRPRPDNQPRP | 0.168 |
| RRIRYRPPRLPRPRPRPSEPPRP | -0.205 |
| RRIRDRPPRLPRPRPRPQFAPRP | -0.0178 |
| RRIRFRPPRLPRPRPRPYHSPRP | -0.0452 |
| RRIRCRPPRLPRPRPRPNFHPRP | -0.259 |
| RRIRYRPPRLPRPRPRPTQCPRP | -0.0863 |
| RRIRARPPRLPRPRPRPHCNPRP | 0.717 |
| RRIRVRPPRLPRPRPRPEDHPRP | -0.021 |
| RRIRRRPPRLPRPRPRPDLSPRP | -0.0391 |
| RRIRVRPPRLPRPRPRPYSWPRP | -0.163 |
| RRIRTRPPRLPRPRPRPWARPRP | -0.00874 |
| RRIRARPPRLPRPRPRPTLWPRP | 1.05 |
| RRIRRRPPRLPRPRPRPTEPPRP | 0.4 |
| RRIRERPPRLPRPRPRPQCMPRP | -0.586 |
| RRIRMRPPRLPRPRPRPFICPRP | 0.0468 |
| RRIRGRPPRLPRPRPRPKEIPRP | 0.57 |
| RRIRNRPPRLPRPRPRPCGWPRP | 0.0822 |
| RRIRGRPPRLPRPRPRPNKPPRP | -0.035 |
| RRIRARPPRLPRPRPRPQSSPRP | -0.0298 |
| RRIRERPPRLPRPRPRPMEEPRP | 0.161 |
| RRIRLRPPRLPRPRPRPGIRPRP | 0.0174 |
| RRIRARPPRLPRPRPRPMGHPRP | 0.062 |
| RRIRRRPPRLPRPRPRPHTVPRP | 0.0423 |
